Molecular target: hemagglutinin H1 on influenza virus A/Puerto Rico/8/34 strain (H1N1) (influenza virus A/Puerto Rico/8/34 (H1N1)) (UniProt P03452)
Assay: cell-based or functional assay

Q: With C18-s2(1-4)P4A (C18-ARLA peptide amide) as the substance, how does the IC50(µM), plaque assay, infection of MDCK cells read?
A: > 100 µM

From US20100119588A1
